Series [1] deals with the molecule itself. The series can be described thus: analytical size exclusion chromatography (Superdex 200) of immunopurified Flag-DAPk. The source says:
Immunopurified Flag-DAPk was loaded onto an analytical Superdex™ 200 10/300 (GE Healthcare) gel-filtration column equilibrated with TBS. The eluting protein was detected by UV absorbance at 280 nm. Fractions were collected using the AKTA Prime fraction collector and analyzed by Western blot with anti-Flag antibodies. The migration position of the fractions containing Flag-DAPk was assigned relative to the migration position of Gel Filtration Calibration HMW standards (GE Healthcare) on the same column.
It elutes in two clearly defined peaks corresponding to ˜640 kDa and ˜320 kDa (FIG. 1D). […] Furthermore, the absence of a peak at the 160 kDa size range excluded the existence of monomers under native conditions. Fractions were collected at indicated elution points and submitted to western blot analysis, confirming DAPk identity at the selected peaks (FIG. 1E).
On the technique in general: Size exclusion chromatography separates by hydrodynamic size, large species first.

The target of series [2] is T1, HA-DAPk (N-terminal hemaglutinin-tagged human full-length death-associated protein kinase) (human, UniProt P53355 1-1430).
T1 construct: also called HA-DAPk (WT); DAPk WT; not shown: N-terminal HA (hemaglutinin) tag
The series can be described thus: co-immunoprecipitation with anti-Flag beads from co-transfected HEK 293T cells, western blot (FIG. 2B). As for the experimental part:
FIG. 2A, Schematic representation of the different DAPk constructs utilized for mapping DAPk homo-oligomerization. The indicated domains: Kinase domain (KD); Ca⁺²/Calmodulin binding region (CaM); Ankyrin repeats (AK); P-Loop; Ras of complex proteins domain (ROC); C-terminal of ROC domain (COR); Death domain (DD); and Serine (Ser) rich tail. […] Immunoprecipitation with anti-Flag beads (IP-α-Flag) was performed and immuno-complexes and cell extracts were analyzed by western blot. FIG. 2C, Cells co-transfected with Flag-DAPk and one of the different HA-tagged DAPk constructs, namely HA-DAPk (WT), HA-ΔROC—a deletion between amino acids 667-954; HA-ΔKinase—a N-terminal deletion (1-285); and ΔROC/ΔKinase—deletion of both KD (1-285) and ROC domain (667-954). Immunoprecipitation and western blot were performed as in B. FIG. 2D, Cells co-transfected with Flag-ROC and HA-ROC; HA-ROC and Flag-ROC-Δ-P-loop; Flag-ROC and HA-DAPk (WT); Flag-ROC-Δ-P-Loop and HA-DAPk (WT); or HA-ROC and DAP1-Flag.
Immunoprecipitation with anti-Flag beads (IP-α-Flag) was performed and immuno-complexes and cell extracts were analyzed by western blot. […] Thus, ROC fragment by itself is sufficient to bind the full length DAPk. Also the ROC fragments interacted with each other (FIG. 2D). […] Together the experiments in FIG. 2B-D established the role of the ROC domain in mediating homo-oligomerization.
In general terms: In western blotting, separated proteins are transferred to a membrane and probed.

B1: Flag-DAPk (N-terminal Flag-tagged human full-length death-associated protein kinase) (enzyme)
chain: MTVFRQENVDDYYDTGEELGSGQFAVVKKCREKSTGLQYAAKFIKKRRTKSSRRGVSREDIEREVSILKEIQHPNVITLHEVYENKTDVILILELVAGGELFDFLAEKESLTEEEATEFLKQILNGVYYLHSLQIAHFDLKPENIMLLDRNVPKPRIKIIDFGLAHKIDFGNEFKNIFGTPEFVAPEIVNYEPLGLEADMWSIGVITYILLSGASPFLGDTKQETLANVSAVNYEFEDEYFSNTSALAKDFIRRLLVKDPKKRMTIQDSLQHPWIKPKDTQQALSRKASAVNMEKFKKFAARKKWKQSVRLISLCQRLSRSFLSRSNMSVARSDDTLDEEDSFVMKAIIHAINDDNVPGLQHLLGSLSNYDVNQPNKHGTPPLLIAAGCGNIQILQLLIKRGSRIDVQDKGGSNAVYWAARHGHVDTLKFLSENKCPLDVKDKSGEMALHVAARYGHADVAQLLCSFGSNPNIQDKEEETPLHCAAWHGYYSVAKALCEAGCNVNIKNREGETPLLTASARGYHDIVECLAEHGADLNACDKDGHIALHLAVRRCQMEVIKTLLSQGCFVDYQDRHGNTPLHVACKDGNMPIVVALCEANCNLDISNKYGRTPLHLAANNGILDVVRYLCLMGASVEALTTDGKTAEDLARSEQHEHVAGLLARLRKDTHRGLFIQQLRPTQNLQPRIKLKLFGHSGSGKTTLVESLKCGLLRSFFRRRRPRLSSTNSSRFPPSPLASKPTVSVSINNLYPGCENVSVRSRSMMFEPGLTKGMLEVFVAPTHHPHCSADDQSTKAIDIQNAYLNGVGDFSVWEFSGNPVYFCCYDYFAANDPTSIHVVVFSLEEPYEIQLNQVIFWLSFLKSLVPVEEPIAFGGKLKNPLQVVLVATHADIMNVPRPAGGEFGYDKDTSLLKEIRNRFGNDLHISNKLFVLDAGASGSKDMKVLRNHLQEIRSQIVSVCPPMTHLCEKIISTLPSWRKLNGPNQLMSLQQFVYDVQDQLNPLASEEDLRRIAQQLHSTGEINIMQSETVQDVLLLDPRWLCTNVLGKLLSVETPRALHHYRGRYTVEDIQRLVPDSDVEELLQILDAMDICARDLSSGTMVDVPALIKTDNLHRSWADEEDEVMVYGGVRIVPVEHLTPFPCGIFHKVQVNLCRWIHQQSTEGDADIRLWVNGCKLANRGAELLVLLVNHGQGIEVQVRGLETEKIKCCLLLDSVCSTIENVMATTLPGLLTVKHYLSPQQLREHHEPVMIYQPRDFFRAQTLKETSLTNTMGGYKESFSSIMCFGCHDVYSQASLGMDIHASDLNLLTRRKLSRLLDPPDPLGKDWCLLAMNLGLPDLVAKYNTSNGAPKDFLPSPLHALLREWTTYPESTVGTLMSKLRELGRRDAADFLLKASSVFKINLDGNGQEAYASSCNSGTSYNSISSVVSR
notes: bait in anti-Flag immunoprecipitation; also called full length DAPk; not shown: N-terminal Flag tag
In the case of B1, the binding result in series [1] is “binds”.

B2: DAP1-Flag (C-terminal Flag-tagged death-associated protein 1) (other, UniProt P51397 2-102, looked up)
chain: SSPPEGKLETKAGHPPAVKAGGMRIVQKHPHTGDTKEEKDKDDQEWESPSPPKPTVFISGVIARGDKDFPPAAAQVAHQKPHASMDKHPSPRTQHIQQPRK
notes: Irrelevant Flag-tagged control protein; not shown: C-terminal Flag tag
B2: in series [2], the binding result is reported as “no binding”.
